Assay results reported in article PMC4954732, “Sterol Biosynthesis and Azole Tolerance Is Governed by the Opposing Actions of SrbA and the CCAAT Binding Complex”.

Biological target: T1, SrbA bHLHZ (Aspergillus fumigatus, UniProt Q4WIN1 161-267)
T1 sequence: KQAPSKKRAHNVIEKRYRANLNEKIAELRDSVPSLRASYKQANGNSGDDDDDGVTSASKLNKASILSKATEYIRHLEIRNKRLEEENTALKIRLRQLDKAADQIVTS
Assay: SPR; apparent Kd; Rmax 197.6, two homodimers proposed; SPR on immobilised biotinylated duplexes, 1:1 model with mass transport; buffer, salt, pH and temperature not stated (protocols of refs 19, 54)
Conditions: protein: recombinant; chain copies: 2; label: 5' biotin on strand 1; blunt

B1: SRE1+SRE2 (cyp51Ap-320-32) (dsDNA)
DNA 1: AGAATCACGCGGTCCGGATGTGTGCTGAGCCG
DNA 2: CGGCTCAGCACACATCCGGACCGCGTGATTCT
Kd: 22 nM
